We go through five molecules from US20250152743A1, “SYNPOPTOSIS CIRCUITS FOR PROGRAMMABLE CELL DEATH CONTROL” (California Institute of Technology, priority 2023, published 2025).

One assay deals with HEK cells. The experiment in a line: Transient DNA transfection of HEK cells, Annexin/Sytox staining, flow cytometry. Type of assay: cell-based, human. The following applies: for pyroptosis, Sytox staining: with TEVP / cognate protease. The protocol:
HEK cells were transiently co-transfected with DNA encoding the circuits, often along with Cherry, a fluorescent protein marker, and cells were analyzed by flow cytometry 16 to 24 hours later. To quantify cell death, the cells were strained with Annexin, Sytox, or both. Annexin stains apoptotic cells by binding to phosphatidylserine exposed on the outer leaflet, and pyroptotic cells by binding to phosphatidylserine in the inner leaflet after membrane permeabilization. In contrast, Sytox, a membrane-impermeable dye, primarily stains pyroptotic cells. Therefore, apoptotic cells are typically Annexin-high and Sytox-low, while pyroptotic cells are Annexin-high and Sytox-high (FIG. 7B). For simplicity, in experiments involving only a single death mode, a single relevant dye was often used. To focus on cells influenced by the circuits, the fraction of Annexin- or Sytox-positive cells was calculated after gating on the fluorescent co-transfection marker (FIG. 7C).
On the day before transfection, HEK cells were seeded at a density of 0.3-0.6 million cells per well on a 12-well plate, 0.1-0.3 million cells per well on a 24-well plate, or 15,000-50,000 cells per well on a 96-well plate. The cells were allowed to attach to the plate overnight, for at least 8 hours. On the day of transfection, we treated the cells with purified DNA plasmids encoding circuit components. In addition to plasmids encoding circuit components, we often included a plasmid encoding a fluorescent co-transfection marker, at roughly 50 ng DNA per well on a 24-well plate. Given the different number of molecular components in each synthetic circuit and their various relative ratios, the total amount of DNA ranged from 50 to 1 μg per well on a 24-well plate, and was scaled by […] when other 12-well or 96-well plates were used, respectively. On the same plate, we often equalized the total amount of DNA across all transfected wells, using a filler plasmid encoding the neomycin resistance gene. To transfect cells with plasmid DNA, we used three types of transfection reagents—Lipofectamine 2000 (Thermo Fisher), Lipofectamine 3000 (Thermo Fisher), and FuGENE HD (Promega), according to manufacturers' instructions. Briefly, for a typical transfection experiment on a 24-well plate, we mixed plasmids and the transfection reagent, around 200 ng of DNA per 1 μl of Lipofectamine 2000, in 25 μl of Opti-MEM reduced serum medium (Thermo Fisher), incubated the mixture for 5-10 min at room temperature, and then added another 25 μl of Opti-MEM before transferring the mixture dropwise to culture wells. We also performed some transfection experiments using the Lipofectamine 3000 kit (Thermo Fisher), at a ratio of 2,000 ng of DNA, 2 ul of 4 ul of P3000, and 3 μl of Lipofectamine 3000. We similarly diluted the mixture in Opti-MEM before adding it to cells. For transfection with FuGENE, we used a ratio of 4 μl FuGENE:1 μg of DNA, and incubated the DNA-FuGENE mixture at room temperature for 5 min before transfection. To enable protein expression from plasmids with a doxycycline-inducible promoter, doxycycline was added to the cell culture at a final concentration of 100 ng/mL. In experiments involving Q-VD-OPh, the compound was added to the cell culture at a final concentration of 30 μM, immediately after the cells received the transfection mixture. To transfect cells with in vitro transcribed mRNA, Lipofectamine MessengerMax (Thermo Fisher) was used. Briefly, for transfection of one well in a 96-well plate, 0.1 μL of Lipofectamine MessengerMAX was diluted in 1.25 μL Opti-MEM and incubated for 10 minutes at room temperature. mRNA was then added to Opti-MEM to the appropriate conditions at the following amounts: 12.5 ng of fluorescent co-transfection marker, 56.25 ng of protease, and 56.25 ng of engineered executioner. Diluted mRNA was then added to diluted MessengerMAX reagent and incubated for 5 minutes at room temperature before addition to Jurkat or THP-1 cells in RPMI media. […]
On the technique in general: A flow cytometer gives signals particle by particle.

Assay [1] in a line: Engineered Casp3 variants without input protease and with Ras sensor protease. The note with it: without an input protease.
Procedure: In this experiment, we tested the wild-type TEVP activatable Casp3 protein against the engineered Casp3 variants (v2.1 and v2.2) as described above. Each Casp3 variant was tested without an input protease and with a Ras sensor protease.

B1: FIG. 1D, fourth module: GSDMA N-terminal domain with internal TEVP cleavage site; SEQ ID NO: 19 (protein)
chain: MGSPVFEDVTRALVRELNPRGDLTPLDSLIDFKHFRPFCLVLRKRKSTLFWGARYVRTDYTLLDLLEPGSSPSDLTDSGNFSFKENLYFQSNMLDVQVQGLVEVPKTVKVKGTAGLSQSSTLEVQTLSVAPSALENLKKERKLSADHSFLNEMRYHEKNLYVVMEAVEAKQEVTVEQTGNANAIFSLPSLALLGLQGSLNNNKAVTIPKGCVLAYRVRLLRVFLFNLWDIPYICNDSMQTFPKIRRVPCSAFISPTQMISEEPEEEKLIGE
Regarding B1, the “pyroptosis, Sytox staining” value in the assay with HEK cells is listed as “abolished its activity”.

B2: FIG. 1D, fifth module: GSDMA N-terminal domain fused to TEVP site-caged N-degron; SEQ ID NOs: 20, 40 (protein)
chain: MGSENLYFQRHKSGAWKLPVSLVKPVFEDVTRALVRELNPRGDLTPLDSLIDFKHFRPFCLVLRKRKSTLFWGARYVRTDYTLLDLLEPGSSPSDLTDSGNFSFKNMLDVQVQGLVEVPKTVKVKGTAGLSQSSTLEVQTLSVAPSALENLKKERKLSADHSFLNEMRYHEKNLYVVMEAVEAKQEVTVEQTGNANAIFSLPSLALLGLQGSLNNNKAVTIPKGCVLAYRVRLLRVFLFNLWDIPYICNDSMQTFPKIRRVPCSAFISPTQMISEEPEEEKLIGEMGSENLYFQRHKSGAWKLPVSLVKPVFEDVTRALVRELNPRGDLTPLDSLIDFKHFRPFCLVLRKRKSTLFWGARYVRTDYTLLDLLEPGSSPSDLTDSGNFSFKNMLDVQVQGLVEVPKTVKVKGTAGLSQSSTLEVQTLSVAPSALENLKKERKLSADHSFLNEMRYHEKNLYVVMEAVEAKQEVTVEQTGNANAIFSLPSLALLGLQGSLNNNKAVTIPKGCVLAYRVRLLRVFLFNLWDIPYICNDSMQTFPKIRRVPCSAFISPTQMISEEPEEEKLIGE
Consider B2, for which the “pyroptosis, Sytox staining” value in the assay with HEK cells was “allowed protease-mediated suppression of pyroptosis”.

B3: Caspase3_v2.2: nCasp3-tevs-nHalo-tevs-cHalo-tevs-cCasp3-CAAX; SEQ ID NO: 45 (protein)
chain: MENTENSVDSKSIKNLEPKIIHGSESMDSGISLDNSYKMDYPEMGLCIIINNKNFHKSTGMTSRSGTDVDAANLRETFRNLKYEVRNKNDLTREEIVELMRDVSKEDHSKRSSFVCVLLSHGEEGIIFGTNGPVDLKKITNFFRGDRCRSLTGKPKLFIIQACRGTELDCGIETENLYFQSEIGTGFPFDPHYVEVLGERMHYVDVGPRDGTPVLFLHGNPTSSYVWRNIIPHVAPENLYFQSTHRCIAPDLIGMGKSDKPDLGYFFDDHVRFMDAFIEALGLEEVVLVIHDWGSALGFHWAKRNPERVKGIAFMEFIRPIPTWDEWPEFARETFQAFRTTDVGRKLIIDQNVFIEGTLPMGVVRPLTEVEMDHYREPFLNPVDREPLWRFPNELPIAGEPANIVALVEEYMDWLHQSPVPKLLFWGTPGVLIPPAEAARLAKSLPNCKAVDIGPGLNLLQEDNPDLIGSEIARWLSTLEISENLYFQSGVDDDMACHKIPVEADFLYAYSTAPGYYSWRNSKDGSWFIQSLCAMLKQYADKLEFMHILTRVNRKVATEFESFSFDATFHAKKQIPCIVSMLTKELYFYHSTGGSSGGGGRSKLNPPDESGPGCMSCKCVLS
Turning to B3, the entries for the “background (TEVP-independent) cell death / Casp3 activation” value in assay [1] and in assay [1] (listed as v2.2) were “background Casp3 activation is reduced” and “reduced to statistically non-significant amounts”, respectively.

B4: Caspase3_v2.1: nHalo-tevs-Casp3te-tevs-cHalo-CAAX; SEQ ID NO: 44 (protein)
chain: MEIGTGFPFDPHYVEVLGERMHYVDVGPRDGTPVLFLHGNPTSSYVWRNIIPHVAPGSENLYFQSGSENTENSVDSKSIKNLEPKIIHGSESMDSGISLDNSYKMDYPEMGLCIIINNKNFHKSTGMTSRSGTDVDAANLRETFRNLKYEVRNKNDLTREEIVELMRDVSKEDHSKRSSFVCVLLSHGEEGIIFGTNGPVDLKKITNFFRGDRCRSLTGKPKLFIIQACRGTELDCGIETENLYFQSGVDDDMACHKIPVEADFLYAYSTAPGYYSWRNSKDGSWFIQSLCAMLKQYADKLEFMHILTRVNRKVATEFESFSFDATFHAKKQIPCIVSMLTKELYFYHSTGSENLYFQSGSTHRCIAPDLIGMGKSDKPDLGYFFDDHVRFMDAFIEALGLEEVVLVIHDWGSALGFHWAKRNPERVKGIAFMEFIRPIPTWDEWPEFARETFQAFRTTDVGRKLIIDQNVFIEGTLPMGVVRPLTEVEMDHYREPFLNPVDREPLWRFPNELPIAGEPANIVALVEEYMDWLHQSPVPKLLFWGTPGVLIPPAEAARLAKSLPNCKAVDIGPGLNLLQEDNPDLIGSEIARWLSTLEISGGSSGGGGRSKLNPPDESGPGCMSCKCVLS
Take B4: the figures for the “background (TEVP-independent) cell death / Casp3 activation” value in assay [1] and in assay [1] (listed as v2.1) were “making TEVP-independent Casp3 activation less likely” and “reduced to statistically non-significant amounts”, respectively.

B5: wildtype GSDME: natural substrate for caspase-3; SEQ ID NO: 21 (protein)
chain: MGFAKATRNFLREVDADGDLIAVSNLNDSDKLQLLSLVTKKKRFWCWQRPKYQFLSLTLGDVLIEDQFPSPVVVESDFVKYEGKFANHVSGTLETALGKVKLNLGGSSRVESQSSFGTLRKQEVDLQQLIRDSAERTINLRNPVLQQVLEGRNEVLCVLTQKITTMQKCVISEHMQVEEKCGGIVGIQTKTVQVSATEDGNVTKDSNVVLEIPAATTIAYGVIELYVKLDGQFEFCLLRGKQGGFENKKRIDSVYLDPLVFREFAFIDMPDAAHGISSQDGPLSVLKQATLLLERNFHPFAELPEPQQTALSDIFQAVLFDDELLMVLEPVCDDLVSGLSPTVAVLGELKPRQQQDLVAFLQLVGCSLQGGCPGPEDAGSKQLFMTAYFLVSALAEMPDSAAALLGTCCKLQIIPTLCHLLRALSDDGVSDLEDPTLTPLKDTERFGIVQRLFASADISLERLKSSVKAVILKDSKVFPLLLCITLNGLCALGREHS
With B5, the “mode of cell death, Sytox and Annexin double staining” value with HEK cells (background of TEVP activating TEVP-activatable caspase-3) was “caused pyroptosis in response to TEVP-mediated caspase-3 activation”. Also, the “cell death by the protein alone” value with HEK cells (without caspase-3 activation) is “alone did not induce cell death”.
